In experiment [1] the target is S protein of the SARS-CoV-2 Omicron (B.1.1.529) strain, his-tagged (SARS-CoV-2, Omicron (B.1.1.529) strain) (UniProt P0DTC2). As to the kind of experiment: BLI. In general terms: Biolayer interferometry detects binding as a change in optical thickness at a sensor tip.
The target of experiment [2] is RBD of the SARS-CoV-2 Delta (B.1.617.2) strain (SARS-CoV-2, Delta (B.1.617.2) strain) (UniProt P0DTC2). The experiment can be described thus: ELISA.

In turn, “CR3022 SH100D+SH103Y+IL34W triple mutant (IgG1 format) (antibody)” yielded a fold increase in binding affinity (BLI) against wild-type CR3022 in experiment [1] of 6.1 fold.
For “CR3022 SH100D+SH103Y+SL33R triple mutant (IgG1 format) (antibody)”, the fold increase in binding affinity (BLI) against wild-type CR3022 in experiment [1] came out at 4.1 fold. In experiment [2], the EC50 (as a rule, the concentration needed to bring the measured effect to its halfway point) was determined as 0.06 nM and the fold lower ELISA EC50 than wild-type CR3022 was determined as 3.4 fold.

Values taken from paper PMC11379722.
